From the supplement of paper PMC9732359
± gives the uncertainty stated by the source.

Test: protein stability index of a GFP-peptide fusion (yeast GPS) (PSI 1-4); higher = more stable; sorted into four equal gates, so the index is relative within each strain
Method in brief: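 Each library plasmid carries Cherry plus GFP with a tiled 17-residue yeast protein peptide fused downstream, and the pooled library was carried in yeast. Mid-log cultures in leucine-free medium were sorted into four equal gates by GFP/Cherry ratio. Reads from Illumina sequencing of PCR-amplified plasmids from each gate were assigned to strains by barcodes. Per peptide, the protein stability index was computed as the summed products of gate read frequency and gate number.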

VRRGNRKRPVPKGATYG [RPL15A] showed a protein stability index (pdr5∆) of 3.27 ± 0.19, a protein stability index (san1∆) of 3.6 ± 0.18 and a protein stability index (ubr1∆) of 3.44 ± 0.14.
In the case of PTFVEFILIPLYKIFSY [SNU114], the protein stability index (doa10∆) is reported as 1.98 ± 0.045, the protein stability index (pdr5∆) is reported as 1.73 ± 0.054 and the protein stability index (san1∆) is reported as 1.62 ± 0.073. It also gave a protein stability index (ubr1∆) of 1.63 ± 0.044.
With TPSQIGVLLRDAHGVTQ [RPS13] the protein stability index (doa10∆) was 1.74 ± 0.083, the protein stability index (pdr5∆) was 1.81 ± 0.15 and the protein stability index (san1∆) was 1.91 ± 0.13. For the same sequence, the protein stability index (ubr1∆) was 2.05 ± 0.037.
With ATAEKLPNIYPSTRCKL [RPT2] the protein stability index (doa10∆) was 2.14 ± 0.096, the protein stability index (pdr5∆) was 1.66 ± 0.091 and the protein stability index (san1∆) was 2.04 ± 0.1. The protein stability index (ubr1∆) was 2 ± 0.1.
RAVLKSFLESVIRDSVT [HHF1] gave a protein stability index (doa10∆) of 2.62 ± 0.063, a protein stability index (pdr5∆) of 2.44 ± 0.052 and a protein stability index (san1∆) of 1.86 ± 0.063. The protein stability index (ubr1∆) was 2.12 ± 0.049.
In the case of RRIIQNAQQTFHIDHTK [RPO21], the protein stability index (doa10∆) is reported as 2.81 ± 0.061, the protein stability index (pdr5∆) is reported as 2.89 ± 0.061 and the protein stability index (san1∆) is reported as 3 ± 0.062. It also gave a protein stability index (ubr1∆) of 2.89 ± 0.066.
Sequence VTTNINWRSFNAKIIDA [SRP68] has a protein stability index (doa10∆) of 3.14 ± 0.081, a protein stability index (pdr5∆) of 3 ± 0.083 and a protein stability index (san1∆) of 3.06 ± 0.059. It also gave a protein stability index (ubr1∆) of 3.18 ± 0.05.
In the case of MSDEDNNYDDFMLSDDE [RRI2], the protein stability index (pdr5∆) is reported as 3.58 ± 0.23 and the protein stability index (san1∆) is reported as 3.28 ± 0.25.
For FEQDSHLRYQPDGVVVH [SNF6], the protein stability index (doa10∆) was 3.09 ± 0.087, the protein stability index (pdr5∆) was 3.1 ± 0.078 and the protein stability index (san1∆) was 3.07 ± 0.046. For the same sequence, the protein stability index (ubr1∆) was 3.09 ± 0.061.
Work on EFTPADPNLSFESSSSL [SSN2] yielded a protein stability index (doa10∆) of 3.05 ± 0.17, a protein stability index (pdr5∆) of 3.09 ± 0.12 and a protein stability index (san1∆) of 2.39 ± 0.16. The protein stability index (ubr1∆) was 2.79 ± 0.15.
Sequence PAELEGLLDLERVIVVT [FAS2] has a protein stability index (doa10∆) of 2.38 ± 0.1, a protein stability index (pdr5∆) of 2.11 ± 0.064 and a protein stability index (san1∆) of 1.78 ± 0.17. For the same sequence, the protein stability index (ubr1∆) was 1.77 ± 0.11.
Work on TPSTETAASVFKELCYE [PRE3] yielded a protein stability index (doa10∆) of 1.92 ± 0.048, a protein stability index (pdr5∆) of 2.1 ± 0.052 and a protein stability index (san1∆) of 2.29 ± 0.062. It also gave a protein stability index (ubr1∆) of 1.84 ± 0.038.
With STKKIQVATKYASLKLP [YMR129W/POM152] the protein stability index (doa10∆) was 1.78 ± 0.047, the protein stability index (pdr5∆) was 1.93 ± 0.036 and the protein stability index (san1∆) was 1.55 ± 0.069. For the same sequence, the protein stability index (ubr1∆) was 1.92 ± 0.038.
NETSEQLVPIRLEFDQD [SNF5] gave a protein stability index (doa10∆) of 3.19 ± 0.097, a protein stability index (pdr5∆) of 3.12 ± 0.099 and a protein stability index (san1∆) of 3.31 ± 0.11. It also gave a protein stability index (ubr1∆) of 3.29 ± 0.07.
KTPEEVEVYAKIFWERL [ISW2] showed a protein stability index (doa10∆) of 1.74 ± 0.081, a protein stability index (pdr5∆) of 2.91 ± 0.17 and a protein stability index (san1∆) of 3.03 ± 0.17. It also gave a protein stability index (ubr1∆) of 3.29 ± 0.085.
FKLGKFNYVAVGDVSNL [QCR2] showed a protein stability index (doa10∆) of 3.28 ± 0.1, a protein stability index (pdr5∆) of 2.01 ± 0.1 and a protein stability index (san1∆) of 2.38 ± 0.14. For the same sequence, the protein stability index (ubr1∆) was 2.83 ± 0.068.
ARKETYSSYIYKVLKQT [HTB1] gave a protein stability index (doa10∆) of 2.89 ± 0.058, a protein stability index (pdr5∆) of 2.43 ± 0.048 and a protein stability index (san1∆) of 1.97 ± 0.072. For the same sequence, the protein stability index (ubr1∆) was 2.47 ± 0.037.
FEASCMEGQKLDDPVLN [YJR042W/NUP85] gave a protein stability index (doa10∆) of 1.83 ± 0.088, a protein stability index (pdr5∆) of 1.76 ± 0.086 and a protein stability index (san1∆) of 1.45 ± 0.21. The protein stability index (ubr1∆) was 1.53 ± 0.061.
RLTAKRLIEHDPVEGNL [SRP14] gave a protein stability index (doa10∆) of 2 ± 0.066, a protein stability index (pdr5∆) of 2.29 ± 0.052 and a protein stability index (san1∆) of 1.93 ± 0.1. For the same sequence, the protein stability index (ubr1∆) was 2.16 ± 0.045.
Sequence RGFSKDLKSKADKLADM [RRP6] has a protein stability index (doa10∆) of 3.34 ± 0.28.
With SAPIYVDIEYTRGRNII [RET1] the protein stability index (doa10∆) was 2.42 ± 0.11, the protein stability index (pdr5∆) was 2.51 ± 0.12 and the protein stability index (san1∆) was 2.88 ± 0.064. For the same sequence, the protein stability index (ubr1∆) was 2.86 ± 0.1.
DKNELQQMIITRLKSLL [SIR3] gave a protein stability index (doa10∆) of 2.23 ± 0.058, a protein stability index (pdr5∆) of 2.04 ± 0.05 and a protein stability index (san1∆) of 2.12 ± 0.063. The protein stability index (ubr1∆) was 2.08 ± 0.037.
Sequence DVDMEDRNLTEFDSTDT [RRI1] has a protein stability index (doa10∆) of 2.93 ± 0.12, a protein stability index (pdr5∆) of 3.09 ± 0.12 and a protein stability index (san1∆) of 2.71 ± 0.13. It also gave a protein stability index (ubr1∆) of 3.01 ± 0.055.
In the case of QVDKVTKEKVNGASVPI [RPL26A], the protein stability index (doa10∆) is reported as 3.1 ± 0.077, the protein stability index (pdr5∆) is reported as 3.3 ± 0.11 and the protein stability index (san1∆) is reported as 2.86 ± 0.097. The protein stability index (ubr1∆) was 3.08 ± 0.046.
LLQKMLNLLNYQELFIQ [YML103C/NUP188] gave a protein stability index (doa10∆) of 2.4 ± 0.053, a protein stability index (pdr5∆) of 1.47 ± 0.038 and a protein stability index (san1∆) of 1.38 ± 0.07. The protein stability index (ubr1∆) was 1.52 ± 0.036.
Work on KPSRTSRQVQKRPRSRT [RPS7A] yielded a protein stability index (doa10∆) of 3.08 ± 0.092, a protein stability index (pdr5∆) of 2.44 ± 0.085 and a protein stability index (san1∆) of 2.68 ± 0.061. It also gave a protein stability index (ubr1∆) of 1.95 ± 0.14.
With LLPANLLSLNSVRSLQK [SRP68] the protein stability index (doa10∆) was 2.71 ± 0.059, the protein stability index (pdr5∆) was 2.48 ± 0.063 and the protein stability index (san1∆) was 2.49 ± 0.057. It also gave a protein stability index (ubr1∆) of 2.81 ± 0.046.
With QVLVCTATLAWGVNLPA [BRR2] the protein stability index (doa10∆) was 1.53 ± 0.11, the protein stability index (pdr5∆) was 1.91 ± 0.088 and the protein stability index (san1∆) was 2.1 ± 0.089. For the same sequence, the protein stability index (ubr1∆) was 2.12 ± 0.059.
With KVVIPNLLCYYNLRSLN [RPN3] the protein stability index (doa10∆) was 2.44 ± 0.19, the protein stability index (pdr5∆) was 2.54 ± 0.081 and the protein stability index (san1∆) was 2.74 ± 0.13. The protein stability index (ubr1∆) was 2.65 ± 0.1.
KRAKEFITTLLKSLYSF [SIN4] gave a protein stability index (doa10∆) of 2.19 ± 0.039, a protein stability index (pdr5∆) of 1.94 ± 0.05 and a protein stability index (san1∆) of 1.83 ± 0.07. The protein stability index (ubr1∆) was 1.87 ± 0.032.
For CAERVKIQQQQPGYADL [QCR6], the protein stability index (doa10∆) was 3.29 ± 0.13, the protein stability index (pdr5∆) was 2.99 ± 0.19 and the protein stability index (ubr1∆) was 3.09 ± 0.27.
In the case of SINVHSNNITSGLNRAI [RET1], the protein stability index (doa10∆) is reported as 3.19 ± 0.1, the protein stability index (pdr5∆) is reported as 3.24 ± 0.07 and the protein stability index (san1∆) is reported as 3.24 ± 0.052. It also gave a protein stability index (ubr1∆) of 3.17 ± 0.052.
With KKRSHHGKASRQQYYSG [SNF6] the protein stability index (doa10∆) was 3.05 ± 0.088, the protein stability index (pdr5∆) was 3.11 ± 0.062 and the protein stability index (san1∆) was 2.92 ± 0.065. It also gave a protein stability index (ubr1∆) of 2.98 ± 0.079.
In the case of KKCPFTGLVSIRGKILT [RPS11A], the protein stability index (doa10∆) is reported as 1.7 ± 0.058, the protein stability index (pdr5∆) is reported as 1.53 ± 0.06 and the protein stability index (san1∆) is reported as 1.47 ± 0.12. For the same sequence, the protein stability index (ubr1∆) was 1.88 ± 0.055.
For LQDVIALSIADDASSAE [RPC53], the protein stability index (doa10∆) was 2.47 ± 0.11, the protein stability index (pdr5∆) was 1.57 ± 0.079 and the protein stability index (san1∆) was 2.16 ± 0.17. It also gave a protein stability index (ubr1∆) of 2.81 ± 0.077.
Work on IWVGEWKEVLAHNPELE [RPO31] yielded a protein stability index (doa10∆) of 3 ± 0.087, a protein stability index (pdr5∆) of 2.36 ± 0.078 and a protein stability index (san1∆) of 2.74 ± 0.072. It also gave a protein stability index (ubr1∆) of 2.74 ± 0.053.
With KRKPAKSSSNRSCVSNS [RPN4] the protein stability index (doa10∆) was 2.89 ± 0.059, the protein stability index (pdr5∆) was 3.01 ± 0.077 and the protein stability index (san1∆) was 3.08 ± 0.065. For the same sequence, the protein stability index (ubr1∆) was 2.98 ± 0.048.
In the case of DQLLTDLIETSFTCFAQ [NUT1], the protein stability index (doa10∆) is reported as 2.56 ± 0.093, the protein stability index (pdr5∆) is reported as 1.9 ± 0.076 and the protein stability index (san1∆) is reported as 1.88 ± 0.11. It also gave a protein stability index (ubr1∆) of 2.91 ± 0.074.
NPVTLNEDSKAFHTAVL [NUT1] showed a protein stability index (doa10∆) of 2.81 ± 0.057, a protein stability index (pdr5∆) of 2.96 ± 0.076 and a protein stability index (san1∆) of 2.82 ± 0.075. For the same sequence, the protein stability index (ubr1∆) was 2.41 ± 0.059.
Work on LRLTDVTNSLSNEEKEK [GAL11] yielded a protein stability index (doa10∆) of 3.14 ± 0.12, a protein stability index (pdr5∆) of 3.17 ± 0.12 and a protein stability index (san1∆) of 2.52 ± 0.15. For the same sequence, the protein stability index (ubr1∆) was 3.3 ± 0.12.
SLTRDFEQCCKEKKELQ [YIL149C/MLP2] gave a protein stability index (doa10∆) of 2.87 ± 0.089, a protein stability index (pdr5∆) of 3.01 ± 0.089 and a protein stability index (san1∆) of 3 ± 0.1. For the same sequence, the protein stability index (ubr1∆) was 3.14 ± 0.11.
Work on TCILHGPVAAQFTKVID [FAS1] yielded a protein stability index (doa10∆) of 1.73 ± 0.064, a protein stability index (pdr5∆) of 2.25 ± 0.048 and a protein stability index (san1∆) of 1.94 ± 0.081. For the same sequence, the protein stability index (ubr1∆) was 1.98 ± 0.047.
FVDLNEKELQNEIKQLG [SRB4] gave a protein stability index (doa10∆) of 2.31 ± 0.072, a protein stability index (pdr5∆) of 2.41 ± 0.17 and a protein stability index (san1∆) of 2.13 ± 0.2. The protein stability index (ubr1∆) was 2.78 ± 0.14.
